Columns and labels:
VEGF [1] = target: T1, VEGF (UniProt P15692-4 27-191, limits assumed); experiment: Biacore SPR, scouting at 10 nM analyte; antibody immobilised on CM5 chip, VEGF as analyte
T1 construct: also called vascular endothelial growth factor
Experimental: (§1) The assay buffer contained 10 mM HEPES buffer (pH 7.4), 150 mM NaCl, 3 mM EDTA, and 0.05% P20 (polyoxyethylenesorbitan). […] The conjugation buffer contained 10 mM sodium acetate buffer (pH 5). A flow rate of 5 μL/minute was used for capturing ligand. A flow rate of 30 μL/minute was used for kinetic analysis.
(§2) For analysis of binding of the antibodies to VEGF, the antibodies were immobilized on the surface of the chip by direct immobilization using EDC/NHS coupling chemistry on flow cell 2 of the CM5 chip. Unoccupied sites were blocked with 1M ethanolamine. The analyte (VEGF) was flowed over the chip at a single analyte concentration at a time. The binding of analyte to the ligand was monitored in real time to obtain on (kₐ) and off (kd) rates. The equilibrium constant (KD) was calculated from the observed kₐ and kd.
(§3) Chi square analysis was carried out between the actual sensorgram and the sensorgram generated from the BIAnalysis software to confirm the accuracy of the analysis; values of 1-2 were considered accurate and below 1 highly accurate.

[2] = target: T2, poly-histidine tagged HPTP-β extracellular domain (ECD) 1/2 (human, UniProt P23467 23-730, limits assumed); experiment: Biacore SPR, scouting at 10 nM analyte; His-tagged HPTP-β 1/2 ECD captured by anti-His, antibody as analyte
T2 construct: domain: extracellular domain (ECD) 1/2; Captured on the Biacore chip through goat anti-His antibody; also called His-tagged ligand HPTP-β 1/2 ECD; not shown: poly-histidine tag
T2 sequence (looked up): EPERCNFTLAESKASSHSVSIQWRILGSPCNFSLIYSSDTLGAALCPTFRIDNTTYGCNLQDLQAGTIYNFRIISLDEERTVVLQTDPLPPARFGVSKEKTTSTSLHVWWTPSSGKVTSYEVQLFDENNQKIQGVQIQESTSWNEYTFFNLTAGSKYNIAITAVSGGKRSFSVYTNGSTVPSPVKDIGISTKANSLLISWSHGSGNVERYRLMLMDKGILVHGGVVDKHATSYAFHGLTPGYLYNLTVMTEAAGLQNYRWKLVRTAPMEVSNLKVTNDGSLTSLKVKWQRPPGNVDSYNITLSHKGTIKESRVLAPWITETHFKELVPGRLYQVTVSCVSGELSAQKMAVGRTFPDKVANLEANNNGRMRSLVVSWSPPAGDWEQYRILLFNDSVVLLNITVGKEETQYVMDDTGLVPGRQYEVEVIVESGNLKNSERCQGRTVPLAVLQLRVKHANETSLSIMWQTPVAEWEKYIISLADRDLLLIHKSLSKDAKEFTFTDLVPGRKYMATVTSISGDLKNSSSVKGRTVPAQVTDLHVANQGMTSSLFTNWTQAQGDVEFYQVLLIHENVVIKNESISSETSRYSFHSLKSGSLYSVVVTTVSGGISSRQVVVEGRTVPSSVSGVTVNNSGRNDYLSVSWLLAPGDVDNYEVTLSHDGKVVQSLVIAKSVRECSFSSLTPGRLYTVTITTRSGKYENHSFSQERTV
Experimental: as §1
(§4) For analysis of binding of antibodies to HPTP-β, poly-histidine tagged HPTP-β extracellular domain (ECD) 1/2 was immobilized on a chip surface via anti-His antibodies. Goat anti-His antibody was first immobilized on the surface of the chip by direct immobilization using EDC/NHS (N-ethyl-N′-(3-dimethyl aminopropyl carbodiimide)/N-hydroxy succinamide) coupling chemistry on flow cell 2 of the CM5 (Carboxymethylated dextran coated) chip. Unoccupied sites were blocked with 1M ethanolamine. The His-tagged ligand HPTP-β 1/2 ECD was captured at a response unit (RU) of 50. The analyte (antibody) was flowed over the chip at a single analyte concentration at a time. The binding of analyte to the ligand was monitored in real time to obtain on (kₐ) and off (kd) rates. The equilibrium constant (KD) was calculated from the observed kₐ and kd.
as §3

VEGF [3] = target: T1, VEGF; experiment: Biacore SPR, full kinetics at 0-10 nM analyte; antibody immobilised on CM5 chip, VEGF as analyte
Experimental: as §1, §2
(§5) Chi square analysis was carried out between the actual sensorgram and the sensorgram generated from the BNAnalysis software to confirm the accuracy of the analysis; values of 1-2 were considered accurate and below 1 highly accurate.

[4] = target: T2, poly-histidine tagged HPTP-β …; experiment: Biacore SPR, full kinetics at 0-10 nM analyte; His-tagged HPTP-β 1/2 ECD captured by anti-His, antibody as analyte
Experimental: as §1, §4, §5

[5] = target: T2, poly-histidine tagged HPTP-β …; experiment: Biacore SPR, scouting at 10 nM analyte; His-tagged HPTP-β 1/2 ECD captured by anti-His, antibody as analyte; scouting experiment at a single ligand concentration (Table 46), not full kinetics
Source text: as §4, §3

T1 sequence (P15692 other isoform, or with tags, fused parts or gaps limits assumed): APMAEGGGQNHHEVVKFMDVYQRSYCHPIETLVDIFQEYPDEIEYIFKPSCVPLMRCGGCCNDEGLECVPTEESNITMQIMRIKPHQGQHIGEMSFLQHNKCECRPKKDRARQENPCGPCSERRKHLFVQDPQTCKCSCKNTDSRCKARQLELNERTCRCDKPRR

Row | Binder | Kd (VEGF [1]) [pM] | Kd [2] [pM] | Kd (VEGF [3]) [pM] | Kd [4] [pM] | Kd [5] [pM]
1 | HC2:LC1-ABI (bispecific antibody, human IgG4 S228P, kappa, The expressed entry minus its signal peptide is used here) heavy: not shown light: DVVMTQSPSFLSASVGDRVTITCKASQHVGTAVAWYQQRPGKAPKLLIYWASTRHTGVPSRFSGSGSGTEFTLTISSLQPEDFATYFCQQYSSYPFTFGGGTKLEIKRTVAAPSVFIFPPSDEQLKSGTASVVCLLNNFYPREAKVQWKVDNALQSGNSQESVTEQDSKDSTYSLSSTLTLSKADYEKHKVYACEVTHQGLSSPVTKSFNRGECGGGGSDLDKKLLEAARAGQDDEVRILMANGADVNARDSTGWTPLHLAAPWGHPEIVEVLLKNGADVNAADFQGWTPLHLAAAVGHLEIVEVLLKYGADVNAQDKFGKTAFDISIDNGNEDLAEILQKAA | 519 | 61 | – | – | –
2 | HC2-ABI:LC1-ABI (bispecific antibody, human IgG4 S228P, kappa) heavy: not shown light: DVVMTQSPSFLSASVGDRVTITCKASQHVGTAVAWYQQRPGKAPKLLIYWASTRHTGVPSRFSGSGSGTEFTLTISSLQPEDFATYFCQQYSSYPFTFGGGTKLEIKRTVAAPSVFIFPPSDEQLKSGTASVVCLLNNFYPREAKVQWKVDNALQSGNSQESVTEQDSKDSTYSLSSTLTLSKADYEKHKVYACEVTHQGLSSPVTKSFNRGECGGGGSDLDKKLLEAARAGQDDEVRILMANGADVNARDSTGWTPLHLAAPWGHPEIVEVLLKNGADVNAADFQGWTPLHLAAAVGHLEIVEVLLKYGADVNAQDKFGKTAFDISIDNGNEDLAEILQKAA | 680 | 205 | – | – | –
3 | HC2:LC1-BRO (bispecific antibody, human IgG4 S228P, kappa) heavy: not shown light: DVVMTQSPSFLSASVGDRVTITCKASQHVGTAVAWYQQRPGKAPKLLIYWASTRHTGVPSRFSGSGSGTEFTLTISSLQPEDFATYFCQQYSSYPFTFGGGTKLEIKRTVAAPSVFIFPPSDEQLKSGTASVVCLLNNFYPREAKVQWKVDNALQSGNSQESVTEQDSKDSTYSLSSTLTLSKADYEKHKVYACEVTHQGLSSPVTKSFNRGECGGGGSEIVMTQSPSTLSASVGDRVIITCQASEIIHSWLAWYQQKPGKAPKLLIYLASTLASGVPSRFSGSGSGAEFTLTISSLQPDDFATYYCQNVYLASTNGANFGQGTKLTVLGGGGGSGGGGSGGGGSGGGGSEVQLVESGGGLVQPGGSLRLSCTASGFSLTDYYYMTWVRQAPGKGLEWVGFIDPDDDPYYATWAKGRFTISRDNSKNTLYLQMNSLRAEDTAVYYCAGGDHNSGWGLDIWGQGTLVTVSS | 0.0351 | 309 | – | – | –
4 | HC2-BRO:LC1-BRO (bispecific antibody, human IgG4 S228P, kappa) heavy: not shown light: DVVMTQSPSFLSASVGDRVTITCKASQHVGTAVAWYQQRPGKAPKLLIYWASTRHTGVPSRFSGSGSGTEFTLTISSLQPEDFATYFCQQYSSYPFTFGGGTKLEIKRTVAAPSVFIFPPSDEQLKSGTASVVCLLNNFYPREAKVQWKVDNALQSGNSQESVTEQDSKDSTYSLSSTLTLSKADYEKHKVYACEVTHQGLSSPVTKSFNRGECGGGGSEIVMTQSPSTLSASVGDRVIITCQASEIIHSWLAWYQQKPGKAPKLLIYLASTLASGVPSRFSGSGSGAEFTLTISSLQPDDFATYYCQNVYLASTNGANFGQGTKLTVLGGGGGSGGGGSGGGGSGGGGSEVQLVESGGGLVQPGGSLRLSCTASGFSLTDYYYMTWVRQAPGKGLEWVGFIDPDDDPYYATWAKGRFTISRDNSKNTLYLQMNSLRAEDTAVYYCAGGDHNSGWGLDIWGQGTLVTVSS | 1.79 | 3.5 | – | – | –
5 | HC2-AFL:LC1 (bispecific antibody, human IgG4 S228P, kappa) heavy: not shown light: DVVMTQSPSFLSASVGDRVTITCKASQHVGTAVAWYQQRPGKAPKLLIYWASTRHTGVPSRFSGSGSGTEFTLTISSLQPEDFATYFCQQYSSYPFTFGGGTKLEIKRTVAAPSVFIFPPSDEQLKSGTASVVCLLNNFYPREAKVQWKVDNALQSGNSQESVTEQDSKDSTYSLSSTLTLSKADYEKHKVYACEVTHQGLSSPVTKSFNRGEC | 350 | 320 | 46.3 | 219 | –
6 | HC2-RAN:LC1 (bispecific antibody, human IgG4 S228P, kappa, also called HC2-RBZ:LC1; tetravalent bispecific antibody with ranibizumab-derived scFv on the heavy chain C-termini) heavy: not shown light: DVVMTQSPSFLSASVGDRVTITCKASQHVGTAVAWYQQRPGKAPKLLIYWASTRHTGVPSRFSGSGSGTEFTLTISSLQPEDFATYFCQQYSSYPFTFGGGTKLEIKRTVAAPSVFIFPPSDEQLKSGTASVVCLLNNFYPREAKVQWKVDNALQSGNSQESVTEQDSKDSTYSLSSTLTLSKADYEKHKVYACEVTHQGLSSPVTKSFNRGEC | – | – | – | – | 0.586
7 | HC2-BRO:LC1 (bispecific antibody, human IgG4 S228P, kappa) heavy: not shown light: DVVMTQSPSFLSASVGDRVTITCKASQHVGTAVAWYQQRPGKAPKLLIYWASTRHTGVPSRFSGSGSGTEFTLTISSLQPEDFATYFCQQYSSYPFTFGGGTKLEIKRTVAAPSVFIFPPSDEQLKSGTASVVCLLNNFYPREAKVQWKVDNALQSGNSQESVTEQDSKDSTYSLSSTLTLSKADYEKHKVYACEVTHQGLSSPVTKSFNRGEC | 0.112 | 325 | 0.218 | 154 | –
8 | HC2-ABI:LC1 (bispecific antibody, human IgG4 S228P, kappa) heavy: not shown light: DVVMTQSPSFLSASVGDRVTITCKASQHVGTAVAWYQQRPGKAPKLLIYWASTRHTGVPSRFSGSGSGTEFTLTISSLQPEDFATYFCQQYSSYPFTFGGGTKLEIKRTVAAPSVFIFPPSDEQLKSGTASVVCLLNNFYPREAKVQWKVDNALQSGNSQESVTEQDSKDSTYSLSSTLTLSKADYEKHKVYACEVTHQGLSSPVTKSFNRGEC | 0.11 | 122 | 0.04 | 1.03 | –
9 | HC2:LC1-AFL (bispecific antibody, human IgG4 S228P, kappa) heavy: not shown light: DVVMTQSPSFLSASVGDRVTITCKASQHVGTAVAWYQQRPGKAPKLLIYWASTRHTGVPSRFSGSGSGTEFTLTISSLQPEDFATYFCQQYSSYPFTFGGGTKLEIKRTVAAPSVFIFPPSDEQLKSGTASVVCLLNNFYPREAKVQWKVDNALQSGNSQESVTEQDSKDSTYSLSSTLTLSKADYEKHKVYACEVTHQGLSSPVTKSFNRGECGGGGSSDTGRPFVEMYSEIPEIIHMTEGRELVIPCRVTSPNITVTLKKFPLDTLIPDGKRIIWDSRKGFIISNATYKEIGLLTCEATVNGHLYKTNYLTHRQTNTIIDVVLSPSHGIELSVGEKLVLNCTARTELNVGIDFNWEYPSSKHQHKKLVNRDLKTQSGSEMKKFLSTLTIDGVTRSDQGLYTCAASSGLMTKKNSTFVRVHEK | 825 | 467 | – | – | –
10 | HC2-AFL:LC1-AFL (bispecific antibody, human IgG4 S228P, kappa) heavy: not shown light: DVVMTQSPSFLSASVGDRVTITCKASQHVGTAVAWYQQRPGKAPKLLIYWASTRHTGVPSRFSGSGSGTEFTLTISSLQPEDFATYFCQQYSSYPFTFGGGTKLEIKRTVAAPSVFIFPPSDEQLKSGTASVVCLLNNFYPREAKVQWKVDNALQSGNSQESVTEQDSKDSTYSLSSTLTLSKADYEKHKVYACEVTHQGLSSPVTKSFNRGECGGGGSSDTGRPFVEMYSEIPEIIHMTEGRELVIPCRVTSPNITVTLKKFPLDTLIPDGKRIIWDSRKGFIISNATYKEIGLLTCEATVNGHLYKTNYLTHRQTNTIIDVVLSPSHGIELSVGEKLVLNCTARTELNVGIDFNWEYPSSKHQHKKLVNRDLKTQSGSEMKKFLSTLTIDGVTRSDQGLYTCAASSGLMTKKNSTFVRVHEK | 557 | 69.4 | – | – | –

Source: patent publication US20240174740A1 (EYEPOINT PHARMACEUTICALS, published 2024)
